Assay [1] deals with T1, protein tyrosine phosphatase-1B (PTP1B) (human, UniProt P18031 1-435).
T1 construct: Endogenous PTP1B of the cell lines, detected by co-immunoprecipitation, Western blot and mass spectrometry; also called PTPB1
T1 sequence (looked up): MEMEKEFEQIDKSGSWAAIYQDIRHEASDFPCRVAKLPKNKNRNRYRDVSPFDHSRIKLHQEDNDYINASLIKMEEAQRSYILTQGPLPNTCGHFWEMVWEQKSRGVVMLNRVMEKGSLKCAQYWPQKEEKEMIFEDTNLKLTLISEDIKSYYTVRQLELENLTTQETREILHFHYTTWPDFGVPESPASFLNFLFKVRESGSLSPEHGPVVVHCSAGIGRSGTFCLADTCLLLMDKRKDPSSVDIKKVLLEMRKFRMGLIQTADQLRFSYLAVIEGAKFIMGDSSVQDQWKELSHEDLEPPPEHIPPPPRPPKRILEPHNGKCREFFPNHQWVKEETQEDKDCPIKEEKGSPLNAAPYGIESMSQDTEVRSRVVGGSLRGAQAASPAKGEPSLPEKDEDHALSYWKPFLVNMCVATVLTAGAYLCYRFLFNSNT
Nature of the assay: IL13Rα2 immunoprecipitation with mass spectrometry (U251 lysates) and reciprocal co-IP/Western blot in CRC, GBM and OC cell lines. The source says:
(§1) FIG. 1. […] Protein position was tentatively assigned based on existing literature.
To characterize the protein interaction network of IL13Rα2, whole-cell lysates of the human GBM cell line U251 were immunoprecipitated and analyzed by mass spectrometry.
(In general: Immunoblotting shows a protein as a band on a membrane.)

In assay [2] the target is T1, protein tyrosine phosphatase-1B (PTP1B). The experiment in a line: co-immunoprecipitation (IL13Rα2 IP, PTP1B Western blot) in RKO transfectants.
From the text: as §1

Changes are numbered by the printed parent chain. Names may count otherwise.

B1: IL13Rα2 (wild type) (receptor, human, UniProt Q14627 27-380, looked up)
chain: DTEIKVNPPQDFEIVDPGYLGYLYLQWQPPLSLDHFKECTVEYELKYRNIGSETWKTIITKNLHYKDGFDLNKGIEAKIHTLLPWQCTNGSEVQSSWAETTYWISPQGIPETKVQDMDCVYYNWQYLLCSWKPGIGVLLDTNYNLFYWYEGLDHALQCVDYIKADGQNIGCRFPYLEASDYKDFYICVNGSSENKPIRSSYFTFQLQNIVKPLPPVYLTFTRESSCEIKLKWSIPLGPIPARCFDYEIEIREDDTTLVTATVENETYTLKTTNETRQLCFVVRSKVNIYCSDDGIWSEWSDKQCWEGEDLSKKTLLRFWLPFGFILILVIFVTGLLLRKPNTYPKMIPEFFCDT
notes: whole, on cells; Used as endogenous protein in lysates of human CRC, GBM and OC cell lines and as transfected wild type in RKO cells; also called IL13Rα2 WT; wild-type IL13Rα2
As for B1, the binding result in assay [1] is on record as “binds”.

B2: IL13Rα2 Tyr369Phe mutant (receptor, human, UniProt Q14627 27-380, looked up)
chain: B1 chain with Y343F
notes: whole, on cells; immunoprecipitated from lysates; also called Y369F mutated form; mutant Tyr369Phe
On to B2, for which the binding result in assay [2] was “no binding”.

The record behind these values is patent publication US20220233552A1 (CONSEJO SUPERIOR DE INVESTIGACIONES CIENT FICAS CSIC, published 2022).
